Results reported in article PMC6568194, “Molecular and Biochemical Characterization of a Type II Thioesterase From the Zoonotic Protozoan Parasite Cryptosporidium parvum” (Frontiers in Cellular and Infection Microbiology, 2019).

Substrate: CCCCCCCCCC(=O)SCCNC(=O)CCNC(=O)[C@H](O)C(C)(C)COP(=O)(O)OP(=O)(O)OC[C@H]1O[C@@H](n2cnc3c(N)ncnc32)[C@H](O)[C@@H]1OP(=O)(O)O
Test: purified protein
Type: biochemical, Cryptosporidium parvum
Settings: 0.1 M HEPES pH 7.4, 50 mM KCl, 50 μM DTNB, MBP-tag background subtracted, temperature not given

B1: CpTEII (MBP-CpTEII) (Cryptosporidium parvum Iowa II) (protein)
chain: MSKSDFDKWFPSYSKVNSHLINLGSRNQPICRLLCIHGAGGSDQIFVKKDLNTGRESSNILLDYAQENGIELLVLQLPGRAGRSHEACYEDIATLINDFYPVFKSHFFGKANLTEYIELIPWVIVGHSMGGLIGFELLKRIKFEQLKDFSAKFGVTDQSGFENKIVKLLREKRIFPELFIIMSSFPPNIPEYDRPWRKNEELNDEEFKQECREWGINQNVFKKGIWEEFEKQLRCDFTMFDSFEMNLVDKIFYCSNQSLYNFMYPLGVDAQLWSASQDSKVTKDIMNKWKELLTSNGNSLDTREIDAQHNFLHDPKARKEWMQDLSTSLDKIILDLEYY
notes: entire ORF (339 aa, 39 kDa) from genomic DNA, N-terminal MBP tag kept (intact fusion assayed), C-terminal His-tag, pMAL-c2e-TEV, expressed in E. coli Rosetta 2
Km: 172.2 µM | kcat: 0.0253 s⁻¹
